What was measured:
hen egg-white lysozyme [1] = biological target: T1, hen egg-white lysozyme (hen, UniProt P00698 19-147); experiment: fluorescence titration in solution, 0.3 µM conjugate, buffer C, 25 °C
T1 construct: also called HEL

hen egg-white lysozyme [2] = biological target: T1, hen egg-white lysozyme; experiment: from Kd in solution: fluorescence titration of conjugate against competition Biacore of H4S(wt)
[3] = biological target: T2, hen egg-white lysozyme (HEL) (Gallus gallus, UniProt P00698); experiment: Titration of H4S conjugates with HEL, monitored by fluorescence; format: binding; conditions: for ΔΔG: decrease of free energy of interaction with HEL on fluorophore conjugation, from Kd of conjugate versus H4S(wt); for sr: relative sensitivity of the conjugate at a fixed concentration of 0.3 µM (Equation 8), HEL; for ΔF∞/F0: maximal variation of F at λmax on HEL binding
T2 construct: hen egg-white lysozyme (HEL); purchased Sigma
Procedure: The binding and fluorescence experiments were performed at equilibrium as if the preparations of conjugates were homogeneous, i. e. as if yc = 1. The binding reactions were conducted by incubating 0.3 µM of conjugate with variable concentrations of the HEL or BSA antigens in a volume of 1 mL, for 30 min in the dark with gentle shaking. The reactions were carried out in Buffer C or in a mixture v:(1-v) of calf serum and Buffer C as indicated in example 2.
The conjugate (or biosensor) B and antigen A form a 1:1 complex B:A according to the reaction: B + A↔B:A [formula] At equilibrium, the concentration [B:A] of the complex is given by the equation: [B:A] = 0.5{[B]0+[A]0+Kd-(((([B]0+[A]0+Kd))^2-4[B]0[A]0))^(1/2)} [formula] where Kd is the dissociation constant, and [A]0 and [B]0 are the total concentrations of A and B, respectively (Renard et al., 2003).
The fluorescence of the IANBD conjugates was excited at 485 nm (5 nm slit width) and its intensity measured between 520 and 550 nm (20 nm slit width) with a FP-6300 spectrofluorometer (Jasco). The signal of HEL alone or BSA alone was measured in an independent experiment and subtracted from the global signal of the binding mixture to give the specific fluorescence intensity F of each conjugate. The intensity F at a given value of [A]0 satisfies the following equation: (F-F0)/F0 = ΔF/F0 = (ΔF∞/F0)([B:A]/[B]0) [formula] where F0 and F∞ are the values of F at zero and saturating concentrations of A (Renard et al., 2003). The values of ΔF∞/F0, Kd, and [B]0 could be determined by fitting Equation 5, in which [B:A] is given by Equation 4, to the experimental values of ΔF/F0, measured in a titration experiment. The fittings were performed with the Kaleidagraph software (Synergy Software).
The sensitivity s and relative sensitivity sr of a conjugate can be defined by the following equations for the low values of [A]0, i. e. in the initial part of the titration curve: ΔF = s[A]0 [formula] ΔF/F0 = sr [A]0 /[B]0 [formula] s and sr can be expressed as functions of characteristic parameters of the conjugate: sr = (ΔF∞/F0)([B]0/(Kd+[B]0)) [formula] s = fb sr [formula] where fb = F0/[B]0 is the molar fluorescence of the free conjugate (Renard and Bedouelle, 2004). Equation 8 implies that sr is maximal when the biosensor B is present at a concentration [B]0 >> Kd, as every newly titrated molecule A then forms a complex. Equation 6 implies that the lower limit of detection δ[A]0 of the conjugate is linked to the lower limit of measurement of the spectrofluorometer δF by the following equations: δ[A]0 = s^-1 δF = sr^-1 [B]0 (δF/F0) [formula]

[4] = 0.3 µM conjugate, buffer C, 25 °C, value ± SE of fitting

ΔΔG [3] [kcal/mol]	sr ([3]; buffer C)	Molecule	other results
–	–	H4S conjugate, IANBD fluorophore coupled at position Asn9 (designed binder, Cys at position 9 (H4S numbering) coupled to IANBD ester (ANBD)) MRGSHHHHHHGSVKVKFFWCGEEKEVDTSKIVWVKRAGKSVLFIYDDNGKNGYGDVTEKDAPKELLDMLARAEREKKLN	Kd (hen egg-white lysozyme [1]): 7 nM; ΔF∞/F0 (maximal relative variation of fluorescence on HEL binding) (hen egg-white lysozyme [1]): 0.52; ΔΔG (conjugate against H4S(wt)) (hen egg-white lysozyme [2]): ≤ 0.5 kcal/mol
≥ 1.5	0.72	Tyr42: H4S conjugate: residue Tyr42 changed into cysteine and coupled with the IANBD fluorophore (conjugate) MRGSHHHHHHGSVKVKFFWNGEEKEVDTSKIVWVKRAGKSVLFIYDDNGKNGCGDVTEKDAPKELLDMLARAEREKKLN	–
≥ 1.5	0.06	Trp22: H4S conjugate: residue Trp22 changed into cysteine and coupled with the IANBD fluorophore (conjugate) MRGSHHHHHHGSVKVKFFWNGEEKEVDTSKIVCVKRAGKSVLFIYDDNGKNGYGDVTEKDAPKELLDMLARAEREKKLN	ΔF∞/F0 [3, 4]: 0.3±0.1
≥ 1.5	nm	Ile33: H4S conjugate: residue Ile33 changed into cysteine and coupled with the IANBD fluorophore (conjugate) MRGSHHHHHHGSVKVKFFWNGEEKEVDTSKIVWVKRAGKSVLFCYDDNGKNGYGDVTEKDAPKELLDMLARAEREKKLN	Kd ([3]; fluorescence titration with HEL, 0.3 µM conjugate, buffer C, 25 °C, value ± SE of fitting): nM; ΔF∞/F0 [3, 4]: nm
–	0.90	Trp8: H4S conjugate: residue Trp8 changed into cysteine and coupled with IANBD (SEQ ID NO: 59) (conjugate, IANBD fluorophore on Cys8) MRGSHHHHHHGSVKVKFFCNGEEKEVDTSKIVWVKRAGKSVLFIYDDNGKNGYGDVTEKDAPKELLDMLARAEREKKLN	–
≤ 0.5	0.24	Lys28: H4S conjugate: residue Lys28 changed into cysteine and coupled with the IANBD fluorophore (conjugate) MRGSHHHHHHGSVKVKFFWNGEEKEVDTSKIVWVKRAGCSVLFIYDDNGKNGYGDVTEKDAPKELLDMLARAEREKKLN	–
≥ 1.5	0.07	Asn40: H4S conjugate: residue Asn40 changed into cysteine and coupled with the IANBD fluorophore (conjugate) MRGSHHHHHHGSVKVKFFWNGEEKEVDTSKIVWVKRAGKSVLFIYDDNGKCGYGDVTEKDAPKELLDMLARAEREKKLN	–
≥ 1.5	0.17	Leu31: H4S conjugate: residue Leu31 changed into cysteine and coupled with the IANBD fluorophore (conjugate) MRGSHHHHHHGSVKVKFFWNGEEKEVDTSKIVWVKRAGKSVCFIYDDNGKNGYGDVTEKDAPKELLDMLARAEREKKLN	–
≤ 0.5	0.27	Thr46: H4S conjugate: residue Thr46 changed into cysteine and coupled with the IANBD fluorophore (conjugate) MRGSHHHHHHGSVKVKFFWNGEEKEVDTSKIVWVKRAGKSVLFIYDDNGKNGYGDVCEKDAPKELLDMLARAEREKKLN	–
≤ 0.5	–	Asn9: H4S conjugate: residue Asn9 changed into cysteine and coupled with the IANBD fluorophore (conjugate) MRGSHHHHHHGSVKVKFFWCGEEKEVDTSKIVWVKRAGKSVLFIYDDNGKNGYGDVTEKDAPKELLDMLARAEREKKLN	–
≤ 0.5	0.22	Phe7: H4S conjugate: residue Phe7 changed into cysteine and coupled with the IANBD fluorophore (conjugate) MRGSHHHHHHGSVKVKFCWNGEEKEVDTSKIVWVKRAGKSVLFIYDDNGKNGYGDVTEKDAPKELLDMLARAEREKKLN	–
≥ 1.5	0.49	Asp44: H4S conjugate: residue Asp44 changed into cysteine and coupled with the IANBD fluorophore (conjugate) MRGSHHHHHHGSVKVKFFWNGEEKEVDTSKIVWVKRAGKSVLFIYDDNGKNGYGCVTEKDAPKELLDMLARAEREKKLN	–
≤ 0.5	–	Ser29: H4S conjugate: residue Ser29 changed into cysteine and coupled with the IANBD fluorophore (conjugate) MRGSHHHHHHGSVKVKFFWNGEEKEVDTSKIVWVKRAGKCVLFIYDDNGKNGYGDVTEKDAPKELLDMLARAEREKKLN	–
–	1.16	Lys39: H4S conjugate: residue Lys39 changed into cysteine and coupled with IANBD (SEQ ID NO: 63) (conjugate, IANBD fluorophore on Cys39) MRGSHHHHHHGSVKVKFFWNGEEKEVDTSKIVWVKRAGKSVLFIYDDNGCNGYGDVTEKDAPKELLDMLARAEREKKLN	–
–	3.17	Val21: H4S conjugate: residue Val21 changed into cysteine and coupled with IANBD (SEQ ID NO: 60) (conjugate, IANBD fluorophore on Cys21) MRGSHHHHHHGSVKVKFFWNGEEKEVDTSKICWVKRAGKSVLFIYDDNGKNGYGDVTEKDAPKELLDMLARAEREKKLN	–
–	–	H4S conjugate, IANBD fluorophore coupled at position Asn40 (designed binder, Cys at position 40 (H4S numbering) coupled to IANBD ester (ANBD)) MRGSHHHHHHGSVKVKFFWNGEEKEVDTSKIVWVKRAGKSVLFIYDDNGKCGYGDVTEKDAPKELLDMLARAEREKKLN	Kd (hen egg-white lysozyme [1]): 2000 nM; ΔF∞/F0 (maximal relative variation of fluorescence on HEL binding) (hen egg-white lysozyme [1]): 0.57; ΔΔG (conjugate against H4S(wt)) (hen egg-white lysozyme [2]): ≥ 1.5 kcal/mol
–	–	H4S conjugate, IANBD fluorophore coupled at position Asp44 (designed binder, Cys at position 44 (H4S numbering) coupled to IANBD ester (ANBD)) MRGSHHHHHHGSVKVKFFWNGEEKEVDTSKIVWVKRAGKSVLFIYDDNGKNGYGCVTEKDAPKELLDMLARAEREKKLN	Kd (hen egg-white lysozyme [1]): 623 nM; ΔF∞/F0 (maximal relative variation of fluorescence on HEL binding) (hen egg-white lysozyme [1]): 1.5; ΔΔG (conjugate against H4S(wt)) (hen egg-white lysozyme [2]): ≥ 1.5 kcal/mol
–	–	H4S conjugate, IANBD fluorophore coupled at position Lys28 (designed binder, Cys at position 28 (H4S numbering) coupled to IANBD ester (ANBD)) MRGSHHHHHHGSVKVKFFWNGEEKEVDTSKIVWVKRAGCSVLFIYDDNGKNGYGDVTEKDAPKELLDMLARAEREKKLN	Kd (hen egg-white lysozyme [1]): 28 nM; ΔF∞/F0 (maximal relative variation of fluorescence on HEL binding) (hen egg-white lysozyme [1]): 0.26; ΔΔG (conjugate against H4S(wt)) (hen egg-white lysozyme [2]): ≤ 0.5 kcal/mol
–	–	H4S conjugate, IANBD fluorophore coupled at position Leu31 (designed binder, Cys at position 31 (H4S numbering) coupled to IANBD ester (ANBD)) MRGSHHHHHHGSVKVKFFWNGEEKEVDTSKIVWVKRAGKSVCFIYDDNGKNGYGDVTEKDAPKELLDMLARAEREKKLN	Kd (hen egg-white lysozyme [1]): 8360 nM; ΔF∞/F0 (maximal relative variation of fluorescence on HEL binding) (hen egg-white lysozyme [1]): 4.9; ΔΔG (conjugate against H4S(wt)) (hen egg-white lysozyme [2]): ≥ 1.5 kcal/mol
